This is an account of results in paper PMC12084805.

What all share (experiment): EMSA
The target of series [1] is T1, POT-3 (Caenorhabditis elegans, UniProt G5EFG7 1-215).
T1 sequence: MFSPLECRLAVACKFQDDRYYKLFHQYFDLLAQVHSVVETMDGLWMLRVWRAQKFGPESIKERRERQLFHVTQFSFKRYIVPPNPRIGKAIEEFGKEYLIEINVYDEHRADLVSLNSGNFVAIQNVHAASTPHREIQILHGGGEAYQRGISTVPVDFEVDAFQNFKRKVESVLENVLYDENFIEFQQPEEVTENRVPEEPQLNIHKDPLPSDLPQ

Series [2] concerns the target T2, POT-2 (Caenorhabditis elegans, UniProt O45595 1-251).
T2 sequence: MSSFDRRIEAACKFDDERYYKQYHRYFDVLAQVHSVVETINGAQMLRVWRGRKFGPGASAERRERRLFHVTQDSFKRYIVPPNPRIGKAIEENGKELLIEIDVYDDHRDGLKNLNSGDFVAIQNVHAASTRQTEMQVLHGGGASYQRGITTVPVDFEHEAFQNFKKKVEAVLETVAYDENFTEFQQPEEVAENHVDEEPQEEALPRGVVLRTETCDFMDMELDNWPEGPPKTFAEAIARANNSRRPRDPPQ

The target in series [3] is T1, POT-3. The source holds these as a separate data set.
The target of series [4] is T2, POT-2. The source holds these as a separate data set.

Read-outs that look alike come from different tables or passages of the source.

For TTAGGTTTAGGT (ssDNA) [ss (TTAGGT)2], the binding result with POT-3 [1] and with POT-2 [2] was “no binding” in each case.
TTAGACTTAGAC (ssDNA) [ss (TTAGAC)2]: the binding result with POT-3 [1] and with POT-2 [2] was “no binding” in each case.
Turning to TTAGGCTTAGGC (ssDNA) [ss (TTAGGC)2], the binding result with POT-3 [3] and with POT-2 [4] was “binds” throughout.
